In US7659073 (HYBRITECH, dated 2010):
Each block holds one binder with its values, some of them ahead of it.

How the values were obtained:
[1] = molecular target: T1, α1-antichymotrypsin (ACT) (UniProt P01011 24-423); test: incubation with ACT, HIC-HPLC profile
T1 sequence (looked up): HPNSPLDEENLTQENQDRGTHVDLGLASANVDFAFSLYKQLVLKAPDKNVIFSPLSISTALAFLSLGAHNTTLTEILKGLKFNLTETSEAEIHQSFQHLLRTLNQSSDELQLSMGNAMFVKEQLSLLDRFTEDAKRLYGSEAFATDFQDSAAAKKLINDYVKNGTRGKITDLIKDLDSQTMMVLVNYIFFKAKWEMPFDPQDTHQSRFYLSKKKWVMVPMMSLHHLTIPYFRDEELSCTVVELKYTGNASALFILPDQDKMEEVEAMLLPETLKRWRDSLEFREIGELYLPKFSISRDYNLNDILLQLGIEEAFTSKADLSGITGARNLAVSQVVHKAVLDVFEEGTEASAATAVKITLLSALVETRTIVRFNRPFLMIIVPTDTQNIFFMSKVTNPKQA

[2] = molecular target: T1, α1-antichymotrypsin (ACT); test: incubation with ACT for two hours at 37° C., HIC-HPLC profile
Description: High performance hydrophobic interaction chromatography (HIC-HPLC) was performed using a polypropylaspartamide column (PolyLC, distributed by Western Analytical, Temecula, Calif.). The column was 4.6×250 mm in length with a 1000 Å pore size. Samples were applied in 1.5 M ammonium sulfate and eluted with a gradient: Buffer A: 1.2 M sodium sulfate, 25 mM sodium phosphate, pH 6.3, and Buffer B: 50 mM sodium phosphate, 5% v/v 2-propanol. The gradient was […], 1 min, 30-80% B, 12 min, then isocratic at 80% B for 2 min before equilibration in Buffer A. High sensitivity peak detection was obtained with a Varian Model 9070 scanning fluorescence detector using an excitation of 232 nm and emission of 334 nm to detect the tryptophan residues in protein.
To confirm that the pro forms of PSA are not reactive with ACT, a mixture of purified mature PSA, [−4]pPSA and [−7, −5]pPSA, were incubated with ACT. […] Only the mature PSA forms an ACT complex.

binding result [1]: no binding (tested: 4× excess of ACT)
B1: [-4]pPSA (enzyme)
chain: not shown
notes: Recombinant from AV12 cells; also found in pooled prostate cancer serum; also called [-4]proPSA

binding result [1]: no binding (tested: 4× excess of ACT)
B2: [-2]pPSA (enzyme)
chain: not shown
notes: It is mature PSA preceded by the leader SR; also called [-2]proPSA

binding result [2]: no binding
B3: [-7]pPSA (enzyme)
chain: not shown
notes: The purified peak holds about equal levels of [-7]pPSA and [-5]pPSA, which are not resolved from each other; also called [-7]proPSA; full length [-7]pPSA

binding result [1]: no binding (tested: 4× excess of ACT)
B4: [-5]pPSA (enzyme)
chain: not shown
notes: Not resolved from [-7]pPSA by HIC-HPLC; tested as an about equal mixture with [-7]pPSA; also called [-5]proPSA; part of the [-5/-7]pPSA peak
